Measured values: patent publication US20250154279A1 (BEIGENE, published 2025)

What was measured:
mouse CD137 = target: T1, mouse CD137 (mouse, UniProt P20334 24-187, limits assumed); test: antigen ELISA
T1 construct: Coated antigen in ELISA; construct not described
T1 sequence (looked up): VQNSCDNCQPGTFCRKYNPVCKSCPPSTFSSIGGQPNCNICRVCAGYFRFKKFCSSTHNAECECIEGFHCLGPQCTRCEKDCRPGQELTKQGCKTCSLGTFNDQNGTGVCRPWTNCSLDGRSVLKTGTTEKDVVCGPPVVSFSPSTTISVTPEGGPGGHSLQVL
Procedure: (§1) For antigen ELISA, a Maxisorp immunoplate was coated with antigens and blocked with 3% BSA (w/v) in PBS buffer (blocking buffer). Monoclonal VHH antibodies were blocked with blocking buffer for 30 minutes and added to wells of the ELISA plate for 1 hour. After washes with PBST, bound antibodies were detected using HRP-conjugated anti-human IgG antibody (Sigma, A0170) and 3,3′,5,5′-tetramethylbenzidine substrate (Cat.: 00-4201-56, eBioscience, USA). Ligand competition was also applied in a ELISA assay.

huCD137-his = target: T2, huCD137-his; test: antigen ELISA, coated huCD137-his, detection with HRP anti-human IgG, single antibody concentration not given; competitor where added: 20 ug/ml CD137L
T2 construct: The sheet prints only 'huCD137-his'; also called human CD137-ECD-his
T2 extracellular domain with C-terminal His tag: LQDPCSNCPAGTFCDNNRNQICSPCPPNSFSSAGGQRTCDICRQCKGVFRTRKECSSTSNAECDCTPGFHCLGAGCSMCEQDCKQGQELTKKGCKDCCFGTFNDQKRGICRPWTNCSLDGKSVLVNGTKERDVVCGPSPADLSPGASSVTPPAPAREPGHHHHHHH
Procedure: as §1

human CD137 ECD-mIgG2a = target: T3, human CD137 ECD-mIgG2a (human); test: antigen ELISA, coated huCD137-mIgG2a, detection with HRP anti-human IgG, single antibody concentration not given; competitor where added: 20 ug/ml CD137L
T3 construct: also called huCD137
Procedure: as §1

B1: BGA-9612 VHH-Fc (camelid anti-huCD137 VHH fused at the N terminal of human IgG1 Fc-null with a G4S linker) (VHH)
VHH: QVQLVESGGGTVQPGDSLRLSCAASGRTFDNYAVGWFRQAPGKERQYVGTYWSGYAHYGDFENNRFTISRDNAKNTVYLQMDNLKPEDTAVYYCAISLKYPMATVTPDYQGQGTQVTVSS
- binding result (mouse CD137): no binding
- binding result (huCD137-his): binds
- binding result (human CD137 ECD-mIgG2a): binds
